Measured values: patent US20240173425A1 (Eli Lilly, published 2024)

B1: anti-human CD33 antibody Ab2 (antibody, human IgG1, kappa, L234A L235A, V domains shown)
VH: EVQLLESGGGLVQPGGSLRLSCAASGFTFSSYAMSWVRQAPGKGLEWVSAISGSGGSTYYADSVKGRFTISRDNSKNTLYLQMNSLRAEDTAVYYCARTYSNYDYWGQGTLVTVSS
VL: DIQMTQSPSSLSASVGDRVTITCQASQPTFNYLNWYQQKPGKAPKLLIYDASNLQTGVPSRFSGSGSGTDFTFTISSLQPEDIATYYCQQYEDLPTFGPGTKVDIKR
notes: Fully human IgG1AAA with S124C and A378C (EU numbering); also called anti-human CD33 Ab2
B2: anti-human CD33 Ab2 GC conjugate of Example 1b (antibody, human IgG1, kappa, L234A L235A, V domains shown)
VH: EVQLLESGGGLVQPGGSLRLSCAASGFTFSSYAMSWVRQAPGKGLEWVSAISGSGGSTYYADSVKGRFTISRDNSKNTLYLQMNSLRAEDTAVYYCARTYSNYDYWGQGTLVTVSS
VL: DIQMTQSPSSLSASVGDRVTITCQASQPTFNYLNWYQQKPGKAPKLLIYDASNLQTGVPSRFSGSGSGTDFTFTISSLQPEDIATYYCQQYEDLPTFGPGTKVDIKR
modifications: glucocorticoid receptor agonist payload-linker GC-L (Preparation 8, maleimide) conjugated to the engineered cysteines at positions 124 and 378 (EU numbering) of the heavy chain; n is 4 (average DAR 3.92 to 3.97)
B3: anti-human CD33 antibody Ab3 (antibody, human IgG1, kappa, L234A L235A, V domains shown)
VH: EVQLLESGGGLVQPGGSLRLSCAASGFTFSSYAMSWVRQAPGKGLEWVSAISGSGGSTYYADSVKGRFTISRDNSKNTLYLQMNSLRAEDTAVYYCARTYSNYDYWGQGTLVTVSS
VL: DIQMTQSPSSLSASVGDRVTITCQASQPTYIYLNWYQQKPGKAPKLLIYDASNLQTGVPSRFSGSGSGTDFTFTISSLQPEDIATYYCQQYEDLPTFGPGTKVDIKR
notes: Fully human IgG1AAA with S124C and A378C (EU numbering)
B4: anti-human CD33 antibody Ab1 (antibody, human IgG1, kappa, L234A L235A, V domains shown)
VH: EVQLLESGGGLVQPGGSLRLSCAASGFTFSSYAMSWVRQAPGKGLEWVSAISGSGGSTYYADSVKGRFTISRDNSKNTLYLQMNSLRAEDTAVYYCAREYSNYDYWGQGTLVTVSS
VL: DIQMTQSPSSLSASVGDRVTITCQASQDVFRYLNWYQQKPGKAPKLLIYDASNLQTGVPSRFSGSGSGTDFTFTISSLQPEDIATYYCQQYEDLPTFGPGTKVDIKR
notes: Fully human IgG1 with L234A, L235A, P329A (IgG1AAA, effector null) and engineered cysteines S124C and A378C (EU numbering), all already in the HC entry

Tests used:
[1] = biological target: T1, cynomolgus monkey CD33 ECD 18-232-His (cynomolgus monkey); assay: SPR, Biacore 8K, antibody captured on Protein A chip, CD33 ECD-His as analyte, 37 C, 1:1 model
T1 construct: also called cynomolgus monkey CD33 extra-cellular domain; not shown: His tag
T1 sequence (chain, as listed by the source): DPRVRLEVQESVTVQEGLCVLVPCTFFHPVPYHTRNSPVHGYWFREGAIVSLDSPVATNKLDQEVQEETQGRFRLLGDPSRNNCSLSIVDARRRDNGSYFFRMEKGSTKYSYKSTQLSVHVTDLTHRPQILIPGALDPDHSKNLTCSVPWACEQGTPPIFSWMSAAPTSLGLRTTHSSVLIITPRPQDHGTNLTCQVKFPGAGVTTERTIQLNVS
Experimental: (§1) The affinity and binding kinetics of the exemplified anti-human CD33 antibodies to human and cynomolgus monkey CD33 ECD 18-232-His proteins was determined by surface plasmon resonance using Biacore 8K (GE Healthcare). Briefly, per the Instrument Handbook the antibody was captured on a Biacore Protein A chip followed by flowing CD33 ECD from 200 nM down to 0.782 nM in 2-fold serial dilution in PBS-P20-BSA (0.005% surfactant P20, 0.1 mg/mL BSA). All measurements were carried out at 37° C. Multi-cycle kinetics setting that ran each analyte concentration in a separate cycle regenerating the surface after each sample injection was used. The regeneration was optimized to maintain consistent surface properties from cycle to cycle. Each cycle started with a 3 minute injection of 0.1 μg/mL of the antibody at 10 μl/min flow rate, followed by 3 min injection of antigen at 50 μl/min flow rate and a 15 min dissociation phase in PBS-P20-BSA. The chip surface was then regenerated with 30 seconds injection of pH 1.5, 10 mM glycine buffer at 50 μl/min flow rate three times. The data was fit to a 1:1 binding model to derive kₐ and kd, and to calculate KD.

[2] = biological target: T2, human CD33 ECD 18-232-His (human, UniProt P20138 18-232); assay: as above
T2 construct: Printed as 'CD33 ECD 18-232-His'; also called human CD33 extra-cellular domain; not shown: His tag
T2 sequence (P20138 18-232): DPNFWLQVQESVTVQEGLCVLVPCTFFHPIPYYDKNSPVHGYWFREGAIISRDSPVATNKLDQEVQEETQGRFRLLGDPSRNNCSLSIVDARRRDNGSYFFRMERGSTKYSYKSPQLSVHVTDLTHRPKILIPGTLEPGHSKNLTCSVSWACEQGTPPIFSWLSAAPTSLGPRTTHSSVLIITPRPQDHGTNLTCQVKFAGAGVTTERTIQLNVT
Experimental: as §1

[3] = biological target: T1, cynomolgus monkey CD33 ECD 18-232-His; assay: SPR, Biacore 8K, conjugate captured on Protein A chip, CD33 ECD-His as analyte, 37 C, 1:1 model
Experimental: as §1

[4] = biological target: T2, human CD33 ECD 18-232-His; assay: as above
Experimental: as §1

[5] = biological target: T3, human CD33 on the cell surface of human monocytes / myeloid cells (human, UniProt P20138 18-364); assay: FACS on human monocytes (gated from human PBMC), Alexa Fluor 647-labelled antibody, 4-fold dilutions, 30 min at 4 C, mean fluorescence intensity
T3 construct: Native CD33 on primary human monocytes from PBMC; also called cell surface CD33; SIGLEC-3
T3 sequence (P20138 18-364 limits assumed): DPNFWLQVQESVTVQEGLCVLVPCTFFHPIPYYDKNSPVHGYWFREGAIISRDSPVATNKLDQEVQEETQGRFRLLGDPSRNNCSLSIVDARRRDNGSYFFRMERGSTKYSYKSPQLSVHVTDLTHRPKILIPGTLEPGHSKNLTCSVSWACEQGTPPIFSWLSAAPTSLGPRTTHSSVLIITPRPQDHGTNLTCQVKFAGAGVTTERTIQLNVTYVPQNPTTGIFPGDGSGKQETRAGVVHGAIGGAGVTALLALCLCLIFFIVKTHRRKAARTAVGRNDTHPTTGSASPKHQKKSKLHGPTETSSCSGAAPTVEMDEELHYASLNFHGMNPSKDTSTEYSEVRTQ
Experimental: Freshly isolated cells PBMCs were resuspended at 2×10⁶ cells/mL and allowed to rest for 15 minutes at room temperature, then plated at 100 μL/well into a round bottom 96-well plate (COSTAR®) and washed with FACS buffer (PBS containing 2% fetal bovine serum from Corning®). […] Data analysis was performed using FlowJo software and statistical analysis was performed using GraphPad Prism 9.

| Binder | Kd [1] [nM] | koff [1] [s⁻¹] | kon [1] [M⁻¹ s⁻¹] | Kd [2] [nM] | koff [2] [s⁻¹] | kon [2] [M⁻¹ s⁻¹] | Kd [3] [nM] | koff [3] [s⁻¹] | kon [3] [M⁻¹ s⁻¹] | Kd [4] [nM] | koff [4] [s⁻¹] | kon [4] [M⁻¹ s⁻¹] | EC50 (read off the curve) [5] [ng/mL] |
| --- | --- | --- | --- | --- | --- | --- | --- | --- | --- | --- | --- | --- | --- |
| B1 | 4.28 | 0.00279 | 653000 | 1.14 | 0.000516 | 454000 |  |  |  |  |  |  |  |
| B2 |  |  |  |  |  |  | 4.65 | 0.00478 | 1.03e+06 | 1.47 | 0.000645 | 439000 |  |
| B3 | 0.812 | 0.00108 | 1.34e+06 | 0.854 | 0.000486 | 570000 |  |  |  |  |  |  | ~5 |
| B4 |  |  |  | 3.4 | 0.00118 | 346000 |  |  |  |  |  |  |  |
